In US20220144895A1, “DE NOVO DESIGN OF TUNABLE PH-DRIVEN CONFORMATIONAL SWITCHES” (University of Washington, priority 2019, published 2022):
Where a chain is given by its changes, count along the chain named. Names and notes keep the numbering of the source. “Also recorded” adds a separate entry of the source.

B1: pRO-2: designed pH-responsive homotrimer, SEQ ID NO: 1-2 (protein)
chain 1: MGSHHHHHHGSGSENLYFQGSEYEIRKALEELKAATAELKRATASLRAITEELKKNPSEDALVEHNRAIVEHNAIIVEHNRIIAAVLELIVRAIK
chain 2: SEYEIRKALEELKAATAELKRATASLRAITEELKKNPSEDALVEHNRAIVEHNAIIVEHNRIIAAVLELIVRAIK
B2: pRO-2 I56V: pRO-2 mutant, SEQ ID NO: 17-18 (protein)
chain 1: B1 chain 1 with I76V
chain 2: GSEYEIRKALEELKAATAELKRATASLRAITEELKKNPSEDALVEHNRAIVEHNAIVVEHNRIIAAVLELIVRAIK

What was measured:
[1] = Cryo-electron microscopy and tomography of proteins with DOPC liposomes; details: gold-nanoparticle conjugates; for membrane deformation and disruption by cryo-EM: pH 5
Method: The conjugation reactions were performed immediately prior to use for electron microscopy imaging. […] The grids were prepared using a Vitrobot Mark IV (FEI) at 4 C and 100% humidity before being plunge-frozen in ethane cooled with liquid nitrogen.
Electron micrographs were collected using a Tecnai G2 Spirit™ Transmission Electron Microscope (FEI) operated at 120 kV and equipped with a 4k×4k Gatan Ultrascan CCD camera at a nominal magnification of 26,000× or a Tecnai TF-20 Transmission Electron Microscope (FEI) operated at 200 kV equipped with a K2 Summit Direct Electron Detector (Gatan).
Projection micrographs collected on the TF-20 were captured with the detector operating in counting mode. Specimens were imaged at 14,500 magnification, giving a pixel size of 0.254 nm, with a dose of ˜18e−/Å^2 across 75 200 ms movie frames. Data were collected in a semi-automated fashion using Leginon™ (49) and micrograph movie frames were aligned using MotionCor2™ (50). Leginon™ was used to collect tomography tilt series from −48 to +48 degrees bidirectionally in 3 degree increments with a total accumulated dose of ˜100 e−/Å^2. Reconstructions were processed using etomo in the IMOD™ software suite (31) with CTF parameters estimated from CTFFIND4™ (52). Reconstructed tomograms were visualized and measurements were made using ImageJ™ (53).

[2] = Size-exclusion chromatography (SEC); format: physicochemical; details: Superdex 75, Na2PO4-Citrate buffer pH 4
Method: Cells were lysed by microfluidization in the presence of 1 mM PMSF. Lysates were clarified by centrifugation at 24,000 ref at 4° C. for at least 30 minutes. Proteins were purified by Immobilized metal affinity chromatography (IMAC): supernatant was applied to Ni-NTA (Qiagen) columns pre-equilibrated in lysis buffer. The column was washed twice with 15 column volumes (CV) of wash buffer (25 mM Tris pH 8.0 at room temperature, 300 mM NaCl, 40 mM Imidazole), followed by 3-5 CV of high-salt wash buffer (25 mM Tris pH 8.0 at room temperature, 1 M NaCl, 40 mM Imidazole) then an additional 15 CV of wash buffer. Protein was eluted with 250 mM Imidazole, and buffer-exchanged into 25 mM Tris pH 8.0 and 150 mM NaCl without imidazole for cleavage of the N-terminal hexahistidine tag by purified hexahistidine-tagged TEV protease (with the exception of design pRO-1, which was cleaved using restriction grade thrombin (EMD Millipore 69671-3) at room temperature for 4 hours or overnight, using a 1:3000 dilution of enzyme into sample solution). A second Ni-NTA step was used to remove hexahistidine tag, uncleaved sample and the hexahistidine-tagged TEV protease, and the cleaved proteins were then […], 150 mM NaCl, and 2% glycerol.

U2-OS cells = experiment: Lysosomal pH with LysoSensor Yellow/Blue DND-160; format: cell-based; details: 5 μM protein, 1 hr, LysoSensor yellow/blue ratio
Method: The final concentration of 5 μM+36GFP fusion proteins was incubated with the LAMP1-HaloTag™ expressing U-2 OS cells on a pre-coated coverslip for 1 hr. Cells were fixed with 4% paraformaldehyde for 20 min at room temperature (RT) and quenched/rinsed with PBS supplemented with 30 mM glycine. Then, the coverslips were mounted on FluoroSave™ (Millipore). For pH measurement of the lysosome, LysoSensor™ Yellow/Blue DND-160 was incubated at 1 mg/mL overnight and washed twice prior to imaging (54). The final concentration of 5 μM protein was incubated with the LAMP1-HaloTag expressing U2-OS cells that were loaded with 1 mg/mL LysoSensor™ Yellow/Blue DND-160 for 1 hr. In separate chambers, LysoSensor™ Yellow/Blue DND-160 loaded cells were incubated with bafilomycin A1 (1 μM) and chloroquine (50 μM) for 1 hr as a control. For live cell confocal microscopy, Zeiss 880 was used to collect LysoSensor™ Yellow/Blue signal. LysoSensor™ Yellow/Blue was excited with a 405 nm laser, and its emission was collected into the two regions (Blue=410-499 nm Yellow=500-600 nm) using a Plan-Apochromat 63×/1.4 oil DIC objective. The ratio of the two channels was calculated using the home-built software in Matlab™.

Molecule | membrane deformation and disruption by cryo-EM [1] | state by SEC at pH 4 [2] | interaction with liposomes by cryo-EM ([1]; pH 5 and pH 8) | change of lysosomal pH (U2-OS cells) | change of lysosomal pH (U2-OS cells; listed as pRO-256V)
B1 | widespread membrane deformation and disruption of the lipid bilayer | soluble aggregate |  |  | 
B2 | widespread membrane deformation and disruption of the lipid bilayer |  | directly interacts with liposomes at pH 5 but not at pH 8; also recorded: interacts directly with liposomes at pH 5 but not pH 8 | larger changes in lysosomal pH than two drugs; also recorded: increases the lysosomal pH more than the small molecule drugs | raises the lysosomal pH
